Source: patent US5976495A, “Peptide derived radionuclide chelators” (Resolution Pharmaceuticals, Inc., priority 1996, dated 1999)
No end group written: not given here. *: point of attachment. Acm = CC(=O)NC*

System: focal inflammation in the leg (zymosan-injected left hindleg)
Format: in vivo, male Wistar rats
Conditions: rat; for Fluid:Blood (inflammatory exudate:blood) / Inflam:Uninfl (inflamed:uninflamed muscle, target to background ratio): i.v. via tail vein, 30 minutes, average of two rats; for Inflam:Uninfl (inflamed:uninflamed muscle, target to background ratio): corrected for residual dose in the tail; for GI Tract (% dose) / Liver (% dose) / Urine (% dose): in vivo, iv
Procedure: Rat inflammation studies were performed as follows.
Serial whole-body scintigrams were acquired at 30 minutes.

Substance	Fluid:Blood (inflammatory exudate:blood)	Inflam:Uninfl (inflamed:uninflamed muscle, target to background ratio)	GI Tract (% dose)	Liver (% dose)	Urine (% dose)
N,N-dimethylGly-Ser-Cys(Acm)-Gly-Thr-Lys-Pro-Pro-Arg ({N,N‑dimethyl}-GSC(Acm)GTKPPR)	1.9	5.3	2.8 % dose	2.4 % dose	63.5 % dose
N,N-dibenzylGly-Ser-Cys(Acm)-Gly-Thr-Lys-Pro-Pro-Arg ({N,N‑dibenzyl}-GSC(Acm)GTKPPR)	0.4	3.7	7.5 % dose	2.3 % dose	55.1 % dose
N,N-dimethylGly-Thr-Cys(Acm)-Gly-Thr-Lys-Pro-Pro-Arg ({N,N‑dimethyl}-GTC(Acm)GTKPPR)	1.6	4.6	2.5 % dose	2.4 % dose	–
